Key:
Experiment in all cases: SPR
[1] = target: gorilla basigin, entire ectodomain; conditions: read off a plot; for other: t1/2 (interaction half-life): parent: est. 1.9 s; for response (response units): plateau of the highest curve of four 2-fold serial dilutions (600 to 75 nM), parent: est. 92
[2] = target: chimpanzee basigin, entire ectodomain (chimpanzee)
[3] = target: gorilla basigin, entire ectodomain (gorilla)
[4] = target: human basigin, entire ectodomain (human) (UniProt P35613)
Sequence of human basigin, entire ectodomain (human) (P35613 138-325): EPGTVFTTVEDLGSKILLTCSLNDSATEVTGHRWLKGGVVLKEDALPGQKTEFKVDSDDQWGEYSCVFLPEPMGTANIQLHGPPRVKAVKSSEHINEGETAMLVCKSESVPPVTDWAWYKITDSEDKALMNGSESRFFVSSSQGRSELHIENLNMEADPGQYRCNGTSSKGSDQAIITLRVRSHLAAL

Substance: introgressed ancestral RH5 (reticulocyte-binding protein homologue 5) (from UniProt Q8IFM5) R216T
- other: t1/2 (interaction half-life) [1]: 2.3 s
- response (response units) [1]: 130

Substance: P. billcollinsi RH5 (ligand)
- Kd [2]: 1.8 µM

Substance: P. adleri RH5 (ligand)
- Kd [3]: 1 µM
- Kd [4]: 3.1 µM

Substance: P. praefalciparum RH5 (ligand)
- Kd [3]: 2.5 µM
- Kd [4]: 1.9 µM

Substance: introgressed ancestral RH5 (reticulocyte-binding protein homologue 5) (from UniProt Q8IFM5) H200Y
- response (response units) [1]: 26

Substance: P. gaboni RH5 (ligand)
- Kd [4]: 3.6 µM

Substance: introgressed ancestral RH5 (reticulocyte-binding protein homologue 5) (from UniProt Q8IFM5) Y203C
- other: t1/2 (interaction half-life) [1]: 1.2 s
- response (response units) [1]: 120

Substance: introgressed ancestral RH5 (reticulocyte-binding protein homologue 5) (from UniProt Q8IFM5) D148H
- other: t1/2 (interaction half-life) [1]: 2.5 s
- response (response units) [1]: 190

Substance: introgressed ancestral RH5 (reticulocyte-binding protein homologue 5) (from UniProt Q8IFM5) Y197S
- other: t1/2 (interaction half-life) [1]: 1.9 s
- response (response units) [1]: 210

Substance: introgressed ancestral RH5 (reticulocyte-binding protein homologue 5) (from UniProt Q8IFM5) Q219K
- other: t1/2 (interaction half-life) [1]: 2.2 s
- response (response units) [1]: 310
